For assay [1], the target named is T1, human GLP-1 receptor (Homo sapiens, UniProt P43220).
T1 construct: expressed in transfected cells; host or cells: membranes from BHK cells, parent line BHKTS13, clone FCW467-12A
Kind of assay: In vitro potency, CRE luciferase reporter gene assay in BHK cells expressing the human GLP-1 receptor.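 Also: firefly luciferase luminescence read after 3 h incubation at 37 °C, compounds tested in an eight-point series from 0.01 pM to 100 nM.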 The note with it: average of duplicates. In kind it is cell-based. In general terms: In a reporter assay the amount or activity of a reporter protein is the signal.
Target sequence in this assay (P43220 24-463): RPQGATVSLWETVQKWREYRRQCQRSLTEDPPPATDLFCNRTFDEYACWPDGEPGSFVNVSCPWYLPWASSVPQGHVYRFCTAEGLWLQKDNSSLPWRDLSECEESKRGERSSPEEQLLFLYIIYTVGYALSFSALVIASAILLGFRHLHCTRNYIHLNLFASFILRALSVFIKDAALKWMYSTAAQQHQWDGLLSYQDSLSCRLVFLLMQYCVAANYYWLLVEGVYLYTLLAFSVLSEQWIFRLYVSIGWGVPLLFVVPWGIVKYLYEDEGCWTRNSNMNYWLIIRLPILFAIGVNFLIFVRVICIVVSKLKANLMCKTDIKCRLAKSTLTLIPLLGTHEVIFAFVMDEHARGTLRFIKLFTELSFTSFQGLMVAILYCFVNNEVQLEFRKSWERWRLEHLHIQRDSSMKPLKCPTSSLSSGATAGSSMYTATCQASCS

The target of assay [2] is T1, human GLP-1 receptor. The assay is described as follows: GLP-1 receptor binding, competitive 125I-GLP-1 SPA binding assay on isolated membranes. As to conditions: IC50/nM (low HSA), low HSA (max. 0.001% final assay concentration).
In assay [3] the target is T2, human GLP-1 receptor (human, UniProt P43220). The assay is described as follows: displacement of [125I]-GLP-1-(7-36)NH2 from membranes with human GLP-1 receptor, SPA, high HSA (2.0%). Background: In a radioligand displacement assay an active substance lowers the binding of a labelled ligand.
Procedure: Each derivative is added in a series of concentrations to isolated membranes containing the human GLP-1 receptor and displacement of the labelled ligand is monitored. The receptor binding is reported as the concentration at which half of the labelled ligand is displaced from the receptor, the $IC50$ value.
For the receptor binding assay in the presence of low HSA (0.001%) 50 μl of the assay buffer was added to each well of an assay plate. […] For the receptor binding assay in the presence of high HSA (2.0%) 50 μl of the 8% albumin stock was added to each well of an assay plate. […] Cell membrane aliquots were thawed and diluted to their working concentration. Fifty μl were added to each well in the assay plate. […] WGA SPA beads were suspended in assay buffer at 20 mg/ml. The suspension was diluted to 10 mg/ml in assay buffer just prior to addition to the assay plate. Fifty μl were added to each well in the assay plate. […] A 25 μl aliquot was reserved for measuring total counts/well. […] The assay plate was incubated for 2 h at 30° C. […] The assay plate was centrifuged for 10 min. […] The assay plate was read in a Packard TopCount NXT instrument.
Assay [4] deals with T2, human GLP-1 receptor.
Target sequence in this assay (P43220 24-463): as above
[5] abbreviates: EC50/pM (1% HSA), 1% HSA final assay concentration.

Read-outs that look alike come from different tables or passages of the source. *1 amine or outer side, *2 acyl side, *3 side chain or, on linkers, in order; H or OH if unused. Where no end group is shown, it is not given here. Side-chain parts run from the residue outwards. [ ]: non-standard residue; d: D form. The star is where a group is joined. Dodecanoyl(12-OPh(4-COOH)) = O=C(O)c1ccc(OCCCCCCCCCCCC(=O)*)cc1; 9‑(3-carboxyphenoxy)nonanoyl = O=C(O)c1cccc(OCCCCCCCCC(=O)*)c1; Undecanoyl(11-OPh(4-COOH)) = O=C(O)c1ccc(OCCCCCCCCCCC(=O)*)cc1; Decanoyl(10-(4-HOOC-PhO)) = O=C(O)c1ccc(OCCCCCCCCCC(=O)*)cc1; Decanoyl(10-O(3-COOH-Ph)) = O=C(O)c1cccc(OCCCCCCCCCC(=O)*)c1; γGlu = O=C(O)[C@H](CCC(=O)[*:2])N[*:1]; C14 diacid = O=C(O)CCCCCCCCCCCCC(=O)*; AEEA = NCCOCCOCC(=O)O; Aib = CC(C)(N)C(=O)O

With `CC[C@H](C)[C@H](NC(=O)[C@H](Cc1ccccc1)NC(=O)[C@H](CCC(=O)O)NC(=O)[C@H](CCCNC(=N)N)NC(=O)[C@H](C)NC(=O)[C@H](C)NC(=O)[C@H](CCC(N)=O)NC(=O)[C@H](CCC(=O)O)NC(=O)[C@H](CCC(=O)O)NC(=O)[C@H](CC(C)C)NC(=O)[C@H](Cc1ccc(O)cc1)NC(=O)[C@H](CO)NC(=O)[C@H](CO)NC(=O)[C@@H](NC(=O)[C@H](CC(=O)O)NC(=O)[C@H](CO)NC(=O)[C@@H](NC(=O)[C@H](Cc1ccccc1)NC(=O)[C@@H](NC(=O)CNC(=O)[C@H](CCC(=O)O)NC(=O)C(C)(C)NC(=O)[C@@H](N)Cc1c[nH]cn1)[C@@H](C)O)[C@@H](C)O)C(C)C)C(=O)N[C@@H](C)C(=O)N[C@@H](Cc1c[nH]c2ccccc12)C(=O)N[C@@H](CC(C)C)C(=O)N[C@H](C(=O)N[C@@H](CCCNC(=N)N)C(=O)NCC(=O)N[C@@H](CCCCNC(=O)COCCOCCNC(=O)COCCOCCNC(=O)CC[C@H](NC(=O)CC[C@H](NC(=O)CCCCCCCCCCCCC(=O)O)C(=O)O)C(=O)O)C(=O)N[C@@H](CCCCNC(=O)COCCOCCNC(=O)COCCOCCNC(=O)CC[C@H](NC(=O)CC[C@H](NC(=O)CCCCCCCCCCCCC(=O)O)C(=O)O)C(=O)O)C(=O)O)C(C)C` [Example 21], the EC50 in assay [1] (0% HSA, read-out: EC50/pM (0% HSA)) was determined as 5.6 pM; in assay [1] (setting [5]), 13 pM.

As to `CC[C@H](C)[C@H](NC(=O)[C@H](Cc1ccccc1)NC(=O)[C@H](CCC(=O)O)NC(=O)[C@H](CCCNC(=N)N)NC(=O)[C@H](C)NC(=O)[C@H](C)NC(=O)[C@H](CCC(N)=O)NC(=O)[C@H](CCC(=O)O)NC(=O)[C@H](CCC(=O)O)NC(=O)[C@H](CC(C)C)NC(=O)[C@H](Cc1ccc(O)cc1)NC(=O)[C@H](CO)NC(=O)[C@H](CO)NC(=O)[C@@H](NC(=O)[C@H](CC(=O)O)NC(=O)[C@H](CO)NC(=O)[C@@H](NC(=O)[C@H](Cc1ccccc1)NC(=O)[C@@H](NC(=O)CNC(=O)[C@H](CCC(=O)O)NC(=O)C(C)(C)NC(=O)[C@@H](N)Cc1c[nH]cn1)[C@@H](C)O)[C@@H](C)O)C(C)C)C(=O)N[C@@H](C)C(=O)N[C@@H](Cc1c[nH]c2ccccc12)C(=O)N[C@@H](CC(C)C)C(=O)N[C@H](C(=O)N[C@@H](CCCNC(=N)N)C(=O)NCC(=O)N[C@@H](CCCCNC(=O)COCCOCCNC(=O)COCCOCCNC(=O)CC[C@H](NC(=O)CCCCCCCCOc1cccc(C(=O)O)c1)C(=O)O)C(=O)N[C@@H](CCCCNC(=O)COCCOCCNC(=O)COCCOCCNC(=O)CC[C@H](NC(=O)CCCCCCCCOc1cccc(C(=O)O)c1)C(=O)O)C(=O)O)C(C)C` [Example 23, N{Epsilon-36}-[2-[2-[2-[[2-[2-[2-[[(4S)-4-carboxy-4-[9-(3-carboxyphenoxy)nonanoylamino]butanoyl]amino]ethoxy]ethoxy]acetyl]amino]ethoxy]ethoxy]acetyl], N{Epsilon-37}-[2-[2-[2-[[2-[2-[2-[[(4S)-4-carboxy-4-[9-(3-carboxyphenoxy)nonanoylamino]butanoyl]amino]ethoxy]ethoxy]acetyl]amino]ethoxy]ethoxy]acetyl]-[Aib8,Glu22,Arg26,Arg34,Lys36,Lys37]-GLP-1-(7-37)-peptide], the IC50 (commonly the concentration needed to halve the response being measured) in assay [2] is 0.29 nM. Besides, the EC50 stood at 7.7 pM in assay [1] (EC50/pM (0% HSA), 0% HSA) and 15 pM in assay [1] (setting [5]).

As for `CC[C@H](C)[C@H](NC(=O)[C@H](Cc1ccccc1)NC(=O)[C@H](CCC(=O)O)NC(=O)[C@H](CCCNC(=N)N)NC(=O)[C@H](C)NC(=O)[C@H](C)NC(=O)[C@H](CCC(N)=O)NC(=O)[C@H](CCC(=O)O)NC(=O)[C@H](CCC(=O)O)NC(=O)[C@H](CC(C)C)NC(=O)[C@H](Cc1ccc(O)cc1)NC(=O)[C@H](CO)NC(=O)[C@H](CO)NC(=O)[C@@H](NC(=O)[C@H](CC(=O)O)NC(=O)[C@H](CO)NC(=O)[C@@H](NC(=O)[C@H](Cc1ccccc1)NC(=O)[C@@H](NC(=O)CNC(=O)[C@H](CCC(=O)O)NC(=O)C(C)(C)NC(=O)[C@@H](N)Cc1c[nH]cn1)[C@@H](C)O)[C@@H](C)O)C(C)C)C(=O)N[C@@H](CCC(=O)O)C(=O)N[C@@H](Cc1c[nH]c2ccccc12)C(=O)N[C@@H](CC(C)C)C(=O)N[C@H](C(=O)N[C@@H](CCCNC(=N)N)C(=O)NCC(=O)N[C@@H](CCCCNC(=O)COCCOCCNC(=O)COCCOCCNC(=O)COCCOCCNC(=O)COCCOCCNC(=O)CC[C@H](NC(=O)CCCCCCCCCOc1cccc(C(=O)O)c1)C(=O)O)C(=O)N[C@@H](CCCCNC(=O)COCCOCCNC(=O)COCCOCCNC(=O)COCCOCCNC(=O)COCCOCCNC(=O)CC[C@H](NC(=O)CCCCCCCCCOc1cccc(C(=O)O)c1)C(=O)O)C(=O)O)C(C)C` [Example 28], the EC50 in assay [1] (EC50/pM (0% HSA), 0% HSA) came to 12 pM; in assay [1] (setting [5]) it was 25 pM.

B1: GLP-1 derivative of Example 12 (peptide)
peptide: H[Aib]EGTFTSDVSSYLEEQAAREFIAWLVRGK([AEEA-AEEA-AEEA-γGlu-C14 diacid])K([AEEA-AEEA-AEEA-γGlu-C14 diacid])
In assay [3], B1 displayed an IC50 of 70 nM. Also, in assay [4], the EC50/pM (0% HSA) amounted to 1.2 pM and the EC50/pM (1% HSA) amounted to 10 pM.

B2: GLP-1 derivative of Example 3 (peptide)
peptide: H[Aib]EGTFTSDVSSYLEEQAAREFIAWLVRGK([AEEA-AEEA-γGlu-Decanoyl(10-(4-HOOC-PhO))])K([AEEA-AEEA-γGlu-Decanoyl(10-(4-HOOC-PhO))])
B2 had an IC50 in assay [3] of 77 nM. In assay [4], this molecule had an EC50/pM (0% HSA) of 1.2 pM and an EC50/pM (1% HSA) of 28 pM.

B3: GLP-1 derivative of Example 13 (peptide)
peptide: H[Aib]EGTFTSDVSSYLEEQAAREFIAWLVRGK([AEEA-γGlu-γGlu-C14 diacid])K([AEEA-γGlu-γGlu-C14 diacid])
Regarding B3, the IC50 in assay [3] was determined as 201 nM. In assay [4], this molecule yielded an EC50/pM (0% HSA) of 1.3 pM and an EC50/pM (1% HSA) of 18 pM.

B4: GLP-1 derivative of Example 5 (peptide)
peptide: H[Aib]EGTFTSDVSSYLEEQAAREFIAWLVRGK([AEEA-AEEA-γGlu-C14 diacid])K([AEEA-AEEA-γGlu-C14 diacid])
In assay [3], B4 had an IC50 of 144 nM. For the same molecule, in assay [4], the EC50/pM (0% HSA) was 1.1 pM and the EC50/pM (1% HSA) stood at 22 pM.

B5: GLP-1 derivative of Example 28 (peptide)
peptide: H[Aib]EGTFTSDVSSYLEEQAAREFIEWLVRGK([AEEA-AEEA-AEEA-AEEA-γGlu-Decanoyl(10-O(3-COOH-Ph))])K([AEEA-AEEA-AEEA-AEEA-γGlu-Decanoyl(10-O(3-COOH-Ph))])
Take B5: the IC50 in assay [3] worked out at 173 nM. In assay [4], this molecule came in with an EC50/pM (0% HSA) of 12 pM and an EC50/pM (1% HSA) of 25 pM.

B6: GLP-1 derivative of Example 7 (peptide)
peptide: H[Aib]EGTFTSDVSSYLEEQAAREFIAWLVQGK([AEEA-AEEA-γGlu-Undecanoyl(11-OPh(4-COOH))])K([AEEA-AEEA-γGlu-Undecanoyl(11-OPh(4-COOH))])
Turning to B6, in assay [3], the half-inhibitory concentration (IC50) is 233 nM. In assay [4], this molecule came in with an EC50/pM (0% HSA) of 1.5 pM and an EC50/pM (1% HSA) of 143 pM.

B7: GLP-1 derivative of Example 23 (peptide)
peptide: H[Aib]EGTFTSDVSSYLEEQAAREFIAWLVRGK([AEEA-AEEA-γGlu-9‑(3-carboxyphenoxy)nonanoyl])K([AEEA-AEEA-γGlu-9‑(3-carboxyphenoxy)nonanoyl])
As for B7, the IC50 in assay [3] turned out to be 193 nM. In assay [4], this molecule yielded an EC50/pM (0% HSA) of 7.7 pM and an EC50/pM (1% HSA) of 15 pM.

B8: GLP-1 derivative of Example 22 (peptide)
peptide: H[Aib]EGTFTSDVSSYLEEQAAREFIAWLVRGK([AEEA-AEEA-AEEA-AEEA-γGlu-Decanoyl(10-O(3-COOH-Ph))])K([AEEA-AEEA-AEEA-AEEA-γGlu-Decanoyl(10-O(3-COOH-Ph))])
In assay [3], B8 yielded an IC50 of 45 nM. In assay [4], this molecule displayed an EC50/pM (0% HSA) of 1.8 pM and an EC50/pM (1% HSA) of 7.7 pM.

B9: GLP-1 derivative of Example 26 (peptide)
peptide: H[Aib]EGTFTSDVSSYLEEQAAREFIAWLVRGK([AEEA-AEEA-γGlu-Dodecanoyl(12-OPh(4-COOH))])K([AEEA-AEEA-γGlu-Dodecanoyl(12-OPh(4-COOH))])
With B9, the IC50 in assay [3] was 360 nM. In assay [4], this molecule returned an EC50/pM (0% HSA) of 1.5 pM and an EC50/pM (1% HSA) of 124 pM.

The values above are taken from patent US10689429B2, “Double-acylated GLP-1 compounds” (Novo Nordisk A/S, priority 2014, dated 2020).
